In patent US11965039B2, “Compstatin analogues and their medical uses” (priority 2018, dated 2024):
Positions of bridges follow the written chain, without caps; N, C: chain ends. Non-standard residues stand in square brackets, D forms with d. Trp(1-Me) = Cn1cc(C[C@H](N)C(=O)O)c2ccccc21; Sar = CNCC(=O)O

B1: Compound 73 (peptide)
peptide: H-[dY]FCI[Trp(1-Me)]QDW[Sar]EHRCTGAES-NH2
modifications: disulfide 3-13
SMILES: CC[C@H](C)[C@@H]1NC(=O)[C@@H](NC(=O)[C@H](Cc2ccccc2)NC(=O)[C@H](N)Cc2ccc(O)cc2)CSSC[C@@H](C(=O)N[C@H](C(=O)NCC(=O)N[C@@H](C)C(=O)N[C@@H](CCC(=O)O)C(=O)N[C@@H](CO)C(N)=O)[C@@H](C)O)NC(=O)[C@H](CCCNC(=N)N)NC(=O)[C@H](Cc2c[nH]cn2)NC(=O)[C@H](CCC(=O)O)NC(=O)CN(C)C(=O)[C@H](Cc2c[nH]c3ccccc23)NC(=O)[C@H](CC(=O)O)NC(=O)[C@H](CCC(N)=O)NC(=O)[C@H](Cc2cn(C)c3ccccc23)NC1=O
B2: Compound 75 (peptide)
peptide: Ac-SEFCI[Trp(1-Me)]QDWGEHRC[Sar]EA-NH2
modifications: disulfide 4-14
SMILES: CC[C@H](C)[C@@H]1NC(=O)[C@@H](NC(=O)[C@H](Cc2ccccc2)NC(=O)[C@H](CCC(=O)O)NC(=O)[C@H](CO)NC(C)=O)CSSC[C@@H](C(=O)N(C)CC(=O)N[C@@H](CCC(=O)O)C(=O)N[C@@H](C)C(N)=O)NC(=O)[C@H](CCCNC(=N)N)NC(=O)[C@H](Cc2c[nH]cn2)NC(=O)[C@H](CCC(=O)O)NC(=O)CNC(=O)[C@H](Cc2c[nH]c3ccccc23)NC(=O)[C@H](CC(=O)O)NC(=O)[C@H](CCC(N)=O)NC(=O)[C@H](Cc2cn(C)c3ccccc23)NC1=O
B3: Compound 86 (peptide)
peptide: Ac-SEFCI[Trp(1-Me)]QDWGEHKC[Sar]EA-NH2
modifications: disulfide 4-14
SMILES: CC[C@H](C)[C@@H]1NC(=O)[C@@H](NC(=O)[C@H](Cc2ccccc2)NC(=O)[C@H](CCC(=O)O)NC(=O)[C@H](CO)NC(C)=O)CSSC[C@@H](C(=O)N(C)CC(=O)N[C@@H](CCC(=O)O)C(=O)N[C@@H](C)C(N)=O)NC(=O)[C@H](CCCCN)NC(=O)[C@H](Cc2c[nH]cn2)NC(=O)[C@H](CCC(=O)O)NC(=O)CNC(=O)[C@H](Cc2c[nH]c3ccccc23)NC(=O)[C@H](CC(=O)O)NC(=O)[C@H](CCC(N)=O)NC(=O)[C@H](Cc2cn(C)c3ccccc23)NC1=O
B4: Compound 85 (peptide)
peptide: Ac-EFCI[Trp(1-Me)]QDWGEHRCES-NH2
modifications: disulfide 3-13
SMILES: CC[C@H](C)[C@@H]1NC(=O)[C@@H](NC(=O)[C@H](Cc2ccccc2)NC(=O)[C@H](CCC(=O)O)NC(C)=O)CSSC[C@@H](C(=O)N[C@@H](CCC(=O)O)C(=O)N[C@@H](CO)C(N)=O)NC(=O)[C@H](CCCNC(=N)N)NC(=O)[C@H](Cc2c[nH]cn2)NC(=O)[C@H](CCC(=O)O)NC(=O)CNC(=O)[C@H](Cc2c[nH]c3ccccc23)NC(=O)[C@H](CC(=O)O)NC(=O)[C@H](CCC(N)=O)NC(=O)[C@H](Cc2cn(C)c3ccccc23)NC1=O
B5: Compound 81 (peptide)
peptide: Ac-SE[Sar]CI[Trp(1-Me)]QDWGEHRC[Sar]EA-NH2
modifications: disulfide 4-14
SMILES: CC[C@H](C)[C@@H]1NC(=O)[C@@H](NC(=O)CN(C)C(=O)[C@H](CCC(=O)O)NC(=O)[C@H](CO)NC(C)=O)CSSC[C@@H](C(=O)N(C)CC(=O)N[C@@H](CCC(=O)O)C(=O)N[C@@H](C)C(N)=O)NC(=O)[C@H](CCCNC(=N)N)NC(=O)[C@H](Cc2c[nH]cn2)NC(=O)[C@H](CCC(=O)O)NC(=O)CNC(=O)[C@H](Cc2c[nH]c3ccccc23)NC(=O)[C@H](CC(=O)O)NC(=O)[C@H](CCC(N)=O)NC(=O)[C@H](Cc2cn(C)c3ccccc23)NC1=O
B6: Compound F (peptide)
peptide: Ac-ICVWQDWGEHSCT-NH2
modifications: disulfide 2-12
SMILES: CC[C@H](C)[C@H](NC(C)=O)C(=O)N[C@H]1CSSC[C@@H](C(=O)N[C@H](C(N)=O)[C@@H](C)O)NC(=O)[C@H](CO)NC(=O)[C@H](Cc2c[nH]cn2)NC(=O)[C@H](CCC(=O)O)NC(=O)CNC(=O)[C@H](Cc2c[nH]c3ccccc23)NC(=O)[C@H](CC(=O)O)NC(=O)[C@H](CCC(N)=O)NC(=O)[C@H](Cc2c[nH]c3ccccc23)NC(=O)[C@H](C(C)C)NC1=O
B7: Compound B (peptide)
peptide: Ac-ICVWQDWGSHRCT-NH2
modifications: disulfide 2-12
SMILES: CC[C@H](C)[C@H](NC(C)=O)C(=O)N[C@H]1CSSC[C@@H](C(=O)N[C@H](C(N)=O)[C@@H](C)O)NC(=O)[C@H](CCCNC(=N)N)NC(=O)[C@H](Cc2c[nH]cn2)NC(=O)[C@H](CO)NC(=O)CNC(=O)[C@H](Cc2c[nH]c3ccccc23)NC(=O)[C@H](CC(=O)O)NC(=O)[C@H](CCC(N)=O)NC(=O)[C@H](Cc2c[nH]c3ccccc23)NC(=O)[C@H](C(C)C)NC1=O
B8: Compound E (peptide)
peptide: Ac-ICVWQDWGAHSCT-NH2
modifications: disulfide 2-12
SMILES: CC[C@H](C)[C@H](NC(C)=O)C(=O)N[C@H]1CSSC[C@@H](C(=O)N[C@H](C(N)=O)[C@@H](C)O)NC(=O)[C@H](CO)NC(=O)[C@H](Cc2c[nH]cn2)NC(=O)[C@H](C)NC(=O)CNC(=O)[C@H](Cc2c[nH]c3ccccc23)NC(=O)[C@H](CC(=O)O)NC(=O)[C@H](CCC(N)=O)NC(=O)[C@H](Cc2c[nH]c3ccccc23)NC(=O)[C@H](C(C)C)NC1=O
B9: Compound C (peptide)
peptide: Ac-ESSAICVWQDWGEHRCT-NH2
modifications: disulfide 6-16
SMILES: CC[C@H](C)[C@H](NC(=O)[C@H](C)NC(=O)[C@H](CO)NC(=O)[C@H](CO)NC(=O)[C@H](CCC(=O)O)NC(C)=O)C(=O)N[C@H]1CSSC[C@@H](C(=O)N[C@H](C(N)=O)[C@@H](C)O)NC(=O)[C@H](CCCNC(=N)N)NC(=O)[C@H](Cc2c[nH]cn2)NC(=O)[C@H](CCC(=O)O)NC(=O)CNC(=O)[C@H](Cc2c[nH]c3ccccc23)NC(=O)[C@H](CC(=O)O)NC(=O)[C@H](CCC(N)=O)NC(=O)[C@H](Cc2c[nH]c3ccccc23)NC(=O)[C@H](C(C)C)NC1=O
B10: Compound 82 (peptide)
peptide: Ac-SE[Sar]CI[Trp(1-Me)]QDWGEHRCTEA-NH2
modifications: disulfide 4-14
SMILES: CC[C@H](C)[C@@H]1NC(=O)[C@@H](NC(=O)CN(C)C(=O)[C@H](CCC(=O)O)NC(=O)[C@H](CO)NC(C)=O)CSSC[C@@H](C(=O)N[C@H](C(=O)N[C@@H](CCC(=O)O)C(=O)N[C@@H](C)C(N)=O)[C@@H](C)O)NC(=O)[C@H](CCCNC(=N)N)NC(=O)[C@H](Cc2c[nH]cn2)NC(=O)[C@H](CCC(=O)O)NC(=O)CNC(=O)[C@H](Cc2c[nH]c3ccccc23)NC(=O)[C@H](CC(=O)O)NC(=O)[C@H](CCC(N)=O)NC(=O)[C@H](Cc2cn(C)c3ccccc23)NC1=O

Legend:
[1] = biological target: T1, Human C3 (Complement tech cat #A113c) (human, UniProt P01024 23-1663); test: cell-based or functional assay
[2] = biological target: T1, Human C3 (Complement tech cat #A113c); test: SPR (Biacore T200), human C3 immobilised, peptide injected, 1:1 fit
Procedure, shortened: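 Human C3 amine-coupled on CM5 chips to about 3000 RU. Multi-cycle runs on Biacore T200 at 25° C: peptides at 6-8 rising concentrations, 60-120 s at 30 µL/min in 10 mM Tris pH 7.4, 150 mM NaCl, 0.05% Tween20, dissociation up to 10 min; 3 M MgCl2 regeneration. Kd derived.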

[3] = biological target: T1, Human C3 (Complement tech cat #A113c); test: cell-based or functional assay; remark: listed apart in the source

T1 sequence (P01024 23-1663 limits assumed): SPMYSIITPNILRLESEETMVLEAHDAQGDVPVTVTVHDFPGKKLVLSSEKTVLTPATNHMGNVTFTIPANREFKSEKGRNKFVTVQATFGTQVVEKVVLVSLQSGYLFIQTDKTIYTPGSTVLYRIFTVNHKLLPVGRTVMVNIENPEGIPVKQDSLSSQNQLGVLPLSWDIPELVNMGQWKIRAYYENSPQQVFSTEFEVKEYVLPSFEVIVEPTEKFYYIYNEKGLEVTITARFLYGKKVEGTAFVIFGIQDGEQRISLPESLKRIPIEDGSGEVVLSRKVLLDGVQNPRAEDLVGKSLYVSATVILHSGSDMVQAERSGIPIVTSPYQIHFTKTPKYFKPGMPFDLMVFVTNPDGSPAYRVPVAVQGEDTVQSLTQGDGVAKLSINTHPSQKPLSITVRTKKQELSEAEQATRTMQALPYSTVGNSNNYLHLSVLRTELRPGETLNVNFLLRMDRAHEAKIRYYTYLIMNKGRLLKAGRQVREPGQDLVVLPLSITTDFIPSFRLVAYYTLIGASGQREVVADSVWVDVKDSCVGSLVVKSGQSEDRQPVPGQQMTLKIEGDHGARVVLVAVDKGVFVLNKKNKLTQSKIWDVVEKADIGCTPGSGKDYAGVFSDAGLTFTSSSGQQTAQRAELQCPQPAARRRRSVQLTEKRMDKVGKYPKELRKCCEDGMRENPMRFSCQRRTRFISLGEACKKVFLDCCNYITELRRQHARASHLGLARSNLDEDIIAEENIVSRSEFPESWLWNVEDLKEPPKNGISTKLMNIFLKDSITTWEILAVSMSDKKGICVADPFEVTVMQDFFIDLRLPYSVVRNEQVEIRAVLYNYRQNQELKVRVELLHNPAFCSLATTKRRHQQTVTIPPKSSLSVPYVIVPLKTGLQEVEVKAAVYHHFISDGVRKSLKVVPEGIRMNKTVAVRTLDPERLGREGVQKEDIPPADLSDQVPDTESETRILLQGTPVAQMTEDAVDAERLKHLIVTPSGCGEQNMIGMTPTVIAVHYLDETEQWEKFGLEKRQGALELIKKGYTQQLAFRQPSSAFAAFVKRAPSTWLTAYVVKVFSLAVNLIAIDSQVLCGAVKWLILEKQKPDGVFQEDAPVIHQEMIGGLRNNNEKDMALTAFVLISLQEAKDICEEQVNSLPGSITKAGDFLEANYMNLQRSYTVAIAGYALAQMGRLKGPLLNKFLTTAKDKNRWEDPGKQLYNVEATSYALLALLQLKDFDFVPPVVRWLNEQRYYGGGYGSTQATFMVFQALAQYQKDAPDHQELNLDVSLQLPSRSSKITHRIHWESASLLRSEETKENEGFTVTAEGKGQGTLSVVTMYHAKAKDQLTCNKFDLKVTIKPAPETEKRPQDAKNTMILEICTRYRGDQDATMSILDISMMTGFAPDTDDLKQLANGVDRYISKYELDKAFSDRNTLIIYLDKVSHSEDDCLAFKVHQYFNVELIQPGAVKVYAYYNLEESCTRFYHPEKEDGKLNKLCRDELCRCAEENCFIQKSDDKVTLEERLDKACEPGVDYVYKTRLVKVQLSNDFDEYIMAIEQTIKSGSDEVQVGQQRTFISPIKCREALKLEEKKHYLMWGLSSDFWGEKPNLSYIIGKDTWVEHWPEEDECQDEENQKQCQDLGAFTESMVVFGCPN

| Binder | inhibition of hemolysis IC50 [1] [nM] | Kd [2] [nM] | CP hemolysis IC50 [3] [nM] |
| --- | --- | --- | --- |
| B1 | < 100 | 0.3 | – |
| B2 | < 100 | 1.5 | – |
| B3 | < 100 | 2.6 | – |
| B4 | < 100 | 1.3 | – |
| B5 | < 100 | 9.7 | – |
| B6 | – | – | 540 |
| B7 | – | – | 360 |
| B8 | – | – | > 1000 |
| B9 | – | – | 300 |
| B10 | < 100 | 5.4 | – |
